Publication PMC4678854

Key:
Experiment in all cases: EMSA
TnsE E522K+D523N = biological target: T1, TnsE E522K+D523N (Escherichia coli (transposon Tn7), UniProt P05845 1-538, E522K;D523N)
T1 sequence: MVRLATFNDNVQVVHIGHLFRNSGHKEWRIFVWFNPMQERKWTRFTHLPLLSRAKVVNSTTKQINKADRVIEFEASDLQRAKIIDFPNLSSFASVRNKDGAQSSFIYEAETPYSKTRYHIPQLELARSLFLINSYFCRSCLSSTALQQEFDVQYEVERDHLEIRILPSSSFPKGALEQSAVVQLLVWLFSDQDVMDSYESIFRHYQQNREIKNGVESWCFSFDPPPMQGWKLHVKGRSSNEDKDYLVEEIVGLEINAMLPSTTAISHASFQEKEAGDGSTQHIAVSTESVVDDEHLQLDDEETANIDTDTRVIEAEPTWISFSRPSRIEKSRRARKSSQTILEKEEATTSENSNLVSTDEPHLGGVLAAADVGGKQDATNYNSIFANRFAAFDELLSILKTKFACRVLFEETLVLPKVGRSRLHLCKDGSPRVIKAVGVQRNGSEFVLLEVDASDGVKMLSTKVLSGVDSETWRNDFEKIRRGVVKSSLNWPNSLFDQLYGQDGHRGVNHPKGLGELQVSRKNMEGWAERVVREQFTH

TnsE wild-type = biological target: T2, TnsE wild-type (Escherichia coli (transposon Tn7), UniProt P05845 1-538)
T2 sequence: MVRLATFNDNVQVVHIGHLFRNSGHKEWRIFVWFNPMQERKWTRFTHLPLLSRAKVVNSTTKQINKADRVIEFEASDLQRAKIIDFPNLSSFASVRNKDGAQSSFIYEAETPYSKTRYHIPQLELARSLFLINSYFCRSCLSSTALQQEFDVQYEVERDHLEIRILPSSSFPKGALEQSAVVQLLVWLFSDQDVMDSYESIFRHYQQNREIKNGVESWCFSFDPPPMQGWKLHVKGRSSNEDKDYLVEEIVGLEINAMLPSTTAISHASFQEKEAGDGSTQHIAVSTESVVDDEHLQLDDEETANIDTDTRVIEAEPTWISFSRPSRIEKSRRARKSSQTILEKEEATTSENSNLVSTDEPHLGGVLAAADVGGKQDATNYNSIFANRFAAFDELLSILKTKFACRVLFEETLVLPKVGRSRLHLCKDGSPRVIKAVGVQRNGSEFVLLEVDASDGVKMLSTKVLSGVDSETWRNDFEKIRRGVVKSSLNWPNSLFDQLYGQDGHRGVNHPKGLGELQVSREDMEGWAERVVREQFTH

TnsE E522K = biological target: T3, TnsE E522K (Escherichia coli (transposon Tn7), UniProt P05845 1-538, E522K)
T3 sequence: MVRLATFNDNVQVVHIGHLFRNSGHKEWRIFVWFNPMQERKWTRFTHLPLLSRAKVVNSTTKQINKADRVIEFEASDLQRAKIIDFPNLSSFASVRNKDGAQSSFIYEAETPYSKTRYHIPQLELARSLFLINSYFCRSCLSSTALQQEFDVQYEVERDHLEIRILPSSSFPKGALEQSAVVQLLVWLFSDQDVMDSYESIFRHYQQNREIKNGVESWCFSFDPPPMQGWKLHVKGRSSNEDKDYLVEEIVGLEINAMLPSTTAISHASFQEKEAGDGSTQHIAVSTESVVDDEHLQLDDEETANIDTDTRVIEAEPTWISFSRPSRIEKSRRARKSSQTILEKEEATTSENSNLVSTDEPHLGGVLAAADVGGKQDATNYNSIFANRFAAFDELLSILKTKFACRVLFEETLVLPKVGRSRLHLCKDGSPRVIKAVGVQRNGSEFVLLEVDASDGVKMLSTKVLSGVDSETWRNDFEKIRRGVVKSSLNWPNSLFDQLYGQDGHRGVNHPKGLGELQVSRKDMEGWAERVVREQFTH

TnsE D523N = biological target: T4, TnsE D523N (Escherichia coli (transposon Tn7), UniProt P05845 1-538, D523N)
T4 sequence: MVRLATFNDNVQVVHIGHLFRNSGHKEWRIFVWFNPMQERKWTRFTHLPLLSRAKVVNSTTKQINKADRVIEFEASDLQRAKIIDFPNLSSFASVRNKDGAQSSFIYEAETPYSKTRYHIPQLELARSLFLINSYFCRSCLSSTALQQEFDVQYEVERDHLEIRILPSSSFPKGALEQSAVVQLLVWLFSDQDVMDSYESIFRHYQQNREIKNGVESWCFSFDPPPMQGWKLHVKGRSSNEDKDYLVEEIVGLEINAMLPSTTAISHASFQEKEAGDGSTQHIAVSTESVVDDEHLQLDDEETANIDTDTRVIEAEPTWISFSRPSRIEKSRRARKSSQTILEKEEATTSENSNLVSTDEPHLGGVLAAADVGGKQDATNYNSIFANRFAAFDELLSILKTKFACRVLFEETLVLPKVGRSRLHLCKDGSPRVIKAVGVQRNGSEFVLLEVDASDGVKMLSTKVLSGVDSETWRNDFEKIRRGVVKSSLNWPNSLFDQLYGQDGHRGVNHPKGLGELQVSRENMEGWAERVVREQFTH

TnsE E516K = biological target: T5, TnsE E516K (Escherichia coli (transposon Tn7), UniProt P05845 1-538, E516K)
T5 sequence: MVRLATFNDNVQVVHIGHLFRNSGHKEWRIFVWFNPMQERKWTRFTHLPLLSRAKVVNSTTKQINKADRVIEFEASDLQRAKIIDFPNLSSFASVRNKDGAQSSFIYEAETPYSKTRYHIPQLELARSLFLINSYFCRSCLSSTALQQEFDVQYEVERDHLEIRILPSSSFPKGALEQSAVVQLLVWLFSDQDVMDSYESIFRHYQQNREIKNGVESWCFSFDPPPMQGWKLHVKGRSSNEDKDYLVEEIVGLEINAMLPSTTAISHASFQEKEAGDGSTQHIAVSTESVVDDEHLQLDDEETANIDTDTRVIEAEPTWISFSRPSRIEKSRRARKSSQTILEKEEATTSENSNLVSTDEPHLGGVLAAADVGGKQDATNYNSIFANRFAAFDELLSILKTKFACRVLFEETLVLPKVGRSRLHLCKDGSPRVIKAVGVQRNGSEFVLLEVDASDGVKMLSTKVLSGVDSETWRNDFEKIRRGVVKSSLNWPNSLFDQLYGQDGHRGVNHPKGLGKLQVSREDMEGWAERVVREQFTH

TnsE G483R = biological target: T6, TnsE G483R (Escherichia coli (transposon Tn7), UniProt P05845 1-538, G483R)
T6 sequence: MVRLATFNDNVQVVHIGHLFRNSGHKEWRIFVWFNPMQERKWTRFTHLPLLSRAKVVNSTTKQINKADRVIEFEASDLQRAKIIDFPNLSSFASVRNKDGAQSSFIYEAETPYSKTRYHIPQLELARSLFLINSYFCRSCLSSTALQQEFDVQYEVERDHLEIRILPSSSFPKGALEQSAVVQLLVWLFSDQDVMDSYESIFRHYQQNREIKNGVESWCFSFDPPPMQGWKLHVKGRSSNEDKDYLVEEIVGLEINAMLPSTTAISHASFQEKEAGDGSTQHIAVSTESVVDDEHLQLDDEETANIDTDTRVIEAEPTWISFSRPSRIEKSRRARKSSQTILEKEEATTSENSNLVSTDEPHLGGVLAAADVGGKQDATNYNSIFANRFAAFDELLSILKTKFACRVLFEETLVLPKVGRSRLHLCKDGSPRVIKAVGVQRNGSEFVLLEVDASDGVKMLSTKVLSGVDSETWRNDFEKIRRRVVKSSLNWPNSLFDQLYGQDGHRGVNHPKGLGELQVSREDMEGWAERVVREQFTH

TnsE G515R = biological target: T7, TnsE G515R (Escherichia coli (transposon Tn7), UniProt P05845 1-538, G515R)
T7 sequence: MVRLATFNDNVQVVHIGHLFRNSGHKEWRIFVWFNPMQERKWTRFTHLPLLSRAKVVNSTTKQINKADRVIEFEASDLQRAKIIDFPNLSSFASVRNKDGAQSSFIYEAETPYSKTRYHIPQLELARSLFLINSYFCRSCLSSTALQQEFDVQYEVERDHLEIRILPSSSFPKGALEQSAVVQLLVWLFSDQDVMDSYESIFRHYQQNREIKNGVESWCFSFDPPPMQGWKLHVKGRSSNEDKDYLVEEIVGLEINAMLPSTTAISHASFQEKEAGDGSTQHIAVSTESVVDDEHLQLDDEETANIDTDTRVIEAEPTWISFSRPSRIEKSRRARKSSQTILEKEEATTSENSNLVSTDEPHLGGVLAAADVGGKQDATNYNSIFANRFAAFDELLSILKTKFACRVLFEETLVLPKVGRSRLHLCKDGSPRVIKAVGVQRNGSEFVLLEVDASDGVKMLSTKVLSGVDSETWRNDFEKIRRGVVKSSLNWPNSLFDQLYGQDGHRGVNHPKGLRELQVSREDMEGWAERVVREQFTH

TnsE A453V = biological target: T8, TnsE A453V (Escherichia coli (transposon Tn7), UniProt P05845 1-538, A453V)
T8 sequence: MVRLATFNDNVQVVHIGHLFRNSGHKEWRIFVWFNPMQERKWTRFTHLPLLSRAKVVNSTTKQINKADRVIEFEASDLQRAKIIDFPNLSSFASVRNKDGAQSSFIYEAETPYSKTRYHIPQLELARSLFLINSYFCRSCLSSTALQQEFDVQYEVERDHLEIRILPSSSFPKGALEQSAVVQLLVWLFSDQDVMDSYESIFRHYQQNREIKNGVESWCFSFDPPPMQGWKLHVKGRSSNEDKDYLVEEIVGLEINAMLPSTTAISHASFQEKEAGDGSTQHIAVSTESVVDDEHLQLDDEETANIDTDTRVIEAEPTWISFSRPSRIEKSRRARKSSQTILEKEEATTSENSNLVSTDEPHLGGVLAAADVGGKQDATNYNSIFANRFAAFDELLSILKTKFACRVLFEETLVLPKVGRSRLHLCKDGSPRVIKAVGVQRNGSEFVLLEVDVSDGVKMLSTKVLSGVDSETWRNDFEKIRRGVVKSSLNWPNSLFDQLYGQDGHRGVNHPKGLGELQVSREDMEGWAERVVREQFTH

Measured: binding result

B1: 3' recessed-end DNA substrate (mixed)
DNA 1: CCATTAGCAAGGCCGGAAACGTCACCAATGCAACGATCAGCCAACTAAACTAGGACATCTTTGCC
DNA 2: GGCAAAGATGTCCTAGTTTAGTTGGCTGAT
binds: TnsE E522K+D523N | TnsE wild-type | TnsE E522K | TnsE D523N | TnsE E516K | TnsE G483R | TnsE G515R | TnsE A453V
